Laboratory results from US20220154204A1, “ENHANCING DROUGHT, SALINITY AND COLD TOLERANCE IN PLANTS AND TREES” (The Regents of the University of California, priority 2019, published 2022).

Molecular target: T1, OST1/SnRK2.6 (Arabidopsis thaliana, UniProt Q940H6)
T1 construct: made in house; host or cells: E. coli
T1 sequence (Q940H6 1-362): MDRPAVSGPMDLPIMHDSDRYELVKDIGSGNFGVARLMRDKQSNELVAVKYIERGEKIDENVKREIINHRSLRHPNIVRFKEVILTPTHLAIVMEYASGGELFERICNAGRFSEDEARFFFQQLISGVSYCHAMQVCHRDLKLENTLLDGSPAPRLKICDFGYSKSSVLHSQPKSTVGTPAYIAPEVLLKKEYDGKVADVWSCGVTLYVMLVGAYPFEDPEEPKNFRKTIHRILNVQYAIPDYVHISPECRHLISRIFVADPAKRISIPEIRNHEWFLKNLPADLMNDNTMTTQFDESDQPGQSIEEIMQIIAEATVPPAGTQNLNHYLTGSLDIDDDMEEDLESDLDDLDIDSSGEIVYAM
Test: In vitro phosphorylation assay of CIAP-dephosphorylated GST-OST1/SnRK2.6 with other protein kinases
Format: biochemical
Details: GST-OST1/SnRK2.6 dephosphorylated by CIAP, [γ-32P]-ATP
Description: We investigated phosphorylation of purified recombinant GST-tagged OST1/SnRK2.6 protein kinase after dephosphorylation in vitro. To test whether OST1/SnRK2.6 could be re-activated by autophosphorylation, after dephosphorylation, the GST-OST1/SnRK2.6 protein bound on glutathione sepharose 4B resin was incubated with calf intestinal alkaline phosphatase (CIAP), and [γ-^32P]-ATP was added to the reaction after wash out of CIAP. […] Therefore, another unknown protein kinase may be required for reversible ABA signal transduction.
10 μg GST-OST1/SnRK2.6 proteins were bound to glutathione sepharose 4B beads and incubated with 30 U CIAP for 2 hr at room temperature. […]
a, Seeds of amiR-HsMYO wild-type (control line) or amiR-ax1117 mutant were sowed on ½ MS medium containing 2 μM ABA, or 0.02% EtOH as control, for germination assays. Representative images showing seed germination after 6 days. b, The percentage of seedlings showing green cotyledons was analyzed. […] In-gel kinase assays were performed using histone type III-S as a substrate. e, SnRK2 band intensities as shown in (d) were measured using ImageJ, n=3 experiments, error bars show +/−s.e.m. f, Recombinant GST-OST1/SnRK2.6 protein was dephosphorylated by alkaline phosphatase in vitro and used for in vitro phosphorylation assays after incubation with CPK6, CPK23 or MPK12 protein kinases. […]

Molecule | phosphorylation of OST1/SnRK2.6 after dephosphorylation
MPK12: MAP kinase of ABA signalling (protein) MSGESSSGSTEHCIKVVPTHGGRYVQYNVYGQLFEVSRKYVPPIRPIGRGACGIVCAAVNSVTGEKVAIKKIGNAFDNIIDAKRTLREIKLLRHMDHENVITIKDIVRPPQRDIFNDVYIVYELMDTDLQRILRSNQTLTSDQCRFLVYQLLRGLKYVHSANILHRDLRPSNVLLNSKNELKIGDFGLARTTSDTDFMTEYVVTRWYRAPELLLNCSEYTAAIDIWSVGCILGEIMTGQPLFPGKDYVHQLRLITELVGSPDNSSLGFLRSDNARRYVRQLPRYPKQQFAARFPKMPTTAIDLLERMLVFDPNRRISVDEALGHAYLSPHHDVAKEPVCSTPFSFDFEHPSCTEEHIKELIYKESVKFNPDH | did not phosphorylate
CPKδ: calcium-dependent protein kinase of ABA signalling (protein, UniProt Q38872 2-544, looked up) Calcium-dependent protein …: GNSCRGSFKDKIYEGNHSRPEENSKSTTTTVSSVHSPTTDQDFSKQNTNPALVIPVKEPIMRRNVDNQSYYVLGHKTPNIRDLYTLSRKLGQGQFGTTYLCTDIATGVDYACKSISKRKLISKEDVEDVRREIQIMHHLAGHKNIVTIKGAYEDPLYVHIVMELCAGGELFDRIIHRGHYSERKAAELTKIIVGVVEACHSLGVMHRDLKPENFLLVNKDDDFSLKAIDFGLSVFFKPGQIFKDVVGSPYYVAPEVLLKHYGPEADVWTAGVILYILLSGVPPFWAETQQGIFDAVLKGYIDFDTDPWPVISDSAKDLIRKMLCSSPSERLTAHEVLRHPWICENGVAPDRALDPAVLSRLKQFSAMNKLKKMALKVIAESLSEEEIAGLRAMFEAMDTDNSGAITFDELKAGLRRYGSTLKDTEIRDLMEAADVDNSGTIDYSEFIAATIHLNKLEREEHLVSAFQYFDKDGSGYITIDELQQSCIEHGMTDVFLEDIIKEVDQDNDGRIDYEEFVAMMQKGNAGVGRRTMKNSLNISMRDV | did not phosphorylate
